Assay results as given in patent publication US6919086B1, “Graminae pollen allergen mutants for specific immunotherapy, and production and use of the same” (Merck Patent Gesellschaft mit, priority 1997, dated 2005).
Numbering of substitutions follows the chain as printed. Numbers in names are those of the source.

B1: rPhl p 5b deletion mutant DM3 (deletion A154-T177, A220T) (protein)
chain: ADAGYAPATPAAAGAAAGKATTEEQKLIEDINVGFKAAVAAAASVPAADKFKTFEAAFTSSSKAAAAKAPGLVPKLDAAYSVAYKAAVGATPEAKFDSFVASLTEALRVIAGALEVHAVKPVTEEPGMAKIPAGELQIIDKIDAAFKVAATAAGGAYDTYKCIPSLEAAVKQAYAATVAAAPQVKYAVFEAALTKTITAMSEVQKVSQPATGAATVAAGAATTAAGAASGAATVAAGGYKV
B2: DM1: deletion mutant of rPhl p 5b (ΔK50-P132, D49→L), SEQ ID NO 91 (protein)
chain: ADAGYAPATPAAAGAAAGKATTEEQKLIEDINVGFKAAVAAAASVPAALAGELQIIDKIDAAFKVAATAAATAPADDKFTVFEAAFNKAIKESTGGAYDTYKCIPSLEAAVKQAYAATVAAAPQVKYAVFEAALTKAITAMSEVQKVSQPATGAATVAAGAATTAAGAASGAATVAAGGYKV
B3: rPhl p 5b point mutant PM1 (N32D, D49L, K50A) (protein)
chain: ADAGYAPATPAAAGAAAGKATTEEQKLIEDIDVGFKAAVAAAASVPAALAFKTFEAAFTSSSKAAAAKAPGLVPKLDAAYSVAYKAAVGATPEAKFDSFVASLTEALRVIAGALEVHAVKPVTEEPGMAKIPAGELQIIDKIDAAFKVAATAAATAPADDKFTVFEAAFNKAIKESTGGAYDTYKCIPSLEAAVKQAYAATVAAAPQVKYAVFEAALTKAITAMSEVQKVSQPATGAATVAAGAATTAAGAASGAATVAAGGYKV
B4: rPhl p 5b point mutant PM3 (A13C) (protein)
chain: B3 chain with A13C, D32N, L49D, A50K

The molecules below were run on basophils from the blood of an allergic patient (assay: Histamine release from basophils). Conditions: not given.
Assay type: cell-based, human
Protocol: Apart from the binding of the allergen to the spec. IgE, the allergen-induced, IgE-mediated release of histamine by allergic effect or cells is of pathophysiological importance for the allergic reaction (side effect). The reactivity of the effector cells (basophils and mast cells) and the epitope specificity of the IgE antibodies which are bound by way of FcεRI are also of importance in this context. For this reason, the modified recombinant allergen variants are tested for their ability to induce histamine release by the degranulation of IgE-loaded basophils which are isolated from the blood of allergic patients.
Before the histamine release test was carried out, the basophilic leucocytes from the EDTA blood of an allergic patient ([…]) were first of all enriched by means of dextran sedimentation and then adjusted to a final concentration of 100,000 basophils/ml. In order to release histamine from the basophils, 200 μl of the cell suspension were in each case incubated, at 37° C. for 40 min, with 50 μl of antigen solution. For this, the rPh1 […] p 5b and the mutants were employed in varying concentrations (of 10^−5-10^−12 M). The histamine which was released was determined in the respective supernatants using the Pharmacia methylhistamine RIA in accordance with the manufacturer's instructions.

For B1, which “Concentration required to bring about a 30% histamine release, fold higher than wild type rPhl p 5b” value is on record?
The value was 3 fold.

With B2 as the molecule, how does the “Concentration required to bring about a 30% histamine release, fold higher than wild type rPhl p 5b” value read?
The value was 20 fold.

The molecules below were run against specific IgE on basophils from the blood of allergic patient (assay: cell-based or functional assay). Conditions: not given.

How did the concentration required to bring about a 30% histamine release from basophils, against wild type rPh1 p 5b turn out when B1 was run?
The concentration required to bring about a 30% histamine release from basophils, against wild type rPh1 p 5b was 3 fold higher.

What follows are molecules tested on Phl p 5b-reactive T cell clones (TCCs) from allergic patients (assay: Proliferative reaction of Phl p 5b-reactive T cell clones ([3H]-thymidine incorporation)). Conditions: T cell-reactive region A; final concentration 0.3 μM.
Assay type: cell-based, human
Protocol: 40 ml of heparinized blood were obtained from each patient. Peripheral mononuclear cells (PBMC) were then isolated from this blood sample by means of the customary method using density gradient centrifugation. Analogous cell isolations were carried out at a later stage when it was necessary to obtain irradiated autologous antigen-presenting cells (APC) for characterizing the TCL and TCC further. After the PBMC had been counted, TCL which reacted to group 5 allergens in vitro were established as follows and as has already been described in detail elsewhere (Lit. 1): in each well of 24-well microculture plates, from 1.5 to 2.0×10^6 PBMC in 1 ml of culture medium (UltraCulture) were stimulated for 7 days in the added presence of natural Phl p5 allergens (in each case 10 μg/well) which had been purified by immunoaffinity chromatography. A total of from 8 to 10 of these cultures were set up. The isolation of Phl p5 by means of immunoaffinity chromatography has been described in detail (Lit. 2). At the end of the 7 days of culture, IL-2 (from 10 to 20 IU/well) was added to the cell cultures for a further 5 to 7 days. All the individual cultures were then pooled and the T cell blasts were enriched by means of density gradient centrifugation; the TCL which were obtained were then tested in a specific lymphocyte proliferation test (see Lit. 1 as well). For this, 2×10^4/ml TCL blasts were in each case cultured with 5×10^4/ml irradiated autologous APCs in triplicate samples in 96-well microculture plates. 10-20 μg of Phl p5 allergen were added as the specific antigen stimulus. After 56 hours of incubation, ^3H-labelled thymidine (1 μCi/well) was pipetted into the microcultures. After a further 16 hours, the radioactivity which had been incorporated into the proliferating T cell blasts was measured in a beta counter (Matrix 96). The results were calculated, as the arithmetic mean of the multiple samples, in counts per minute (cpm). The criterion for the quality of the TCL was the stimulation index, which was obtained by relating the cpm values with Phl p5 addition to those without Phl p5 addition.
After a TCL had been cloned (see below), the specificity of the isolated TCCs were determined as has just been described. Stimulation indices of at least 5 were rated as being positive for the TCCs. The determination of T cell epitopes for defining the T cell-reactive regions on group 5 allergens was also carried out using specific proliferation tests, with 1-2 μg of synthesized dodecapeptide/ml being used for this purpose in each case (see below).
The reactivity of the recombinant Ph1 p 5b mutants was tested on established T cell clones (TCCs) of known specificity. The TCCs derive from patients who are allergic to grass pollen (see Ex. 1) and are directed against the T cell-reactive regions A (FIG. 7), B (FIG. 8) and C (FIG. 9). The T cell reactivity was measured by stimulating the clones to proliferate.

What does the source list for B3?
Incorporation of [3H]-thymidine into TCC CB 2 (stimulation index class): +++ (>10 (+++)); Incorporation of [3H]-thymidine into TCC CB 14 (stimulation index class): +++ (>10 (+++)); Incorporation of [3H]-thymidine into TCC JR 13 (stimulation index class): +++ (>10 (+++)); Incorporation of [3H]-thymidine into TCC JR 15 (stimulation index class): ++ (5-10 (++))

Which results are given for B4?
Incorporation of [3H]-thymidine into TCC CB 2 (stimulation index class): +++ (>10 (+++)); Incorporation of [3H]-thymidine into TCC JR 13 (stimulation index class): +++ (>10 (+++))

For B1, which “Incorporation of [3H]-thymidine into TCC JR 13 (stimulation index class)” value is on record?
Its value is “+++ (>10 (+++))”.

And the “Incorporation of [3H]-thymidine into TCC JR 15 (stimulation index class)” value?
Its value is “+++ (>10 (+++))”.

Which “Incorporation of [3H]-thymidine into TCC CB 2 (stimulation index class)” value does the source give for B2 here?
The value was “+++ (>10 (+++))”.

And the “Incorporation of [3H]-thymidine into TCC CB 14 (stimulation index class)” value?
Its value is “+++ (>10 (+++))”.

And the “Incorporation of [3H]-thymidine into TCC JR 13 (stimulation index class)” value?
Its value is “+++ (>10 (+++))”.

What about the “Incorporation of [3H]-thymidine into TCC JR 15 (stimulation index class)” value of the same molecule?
Its value is “+++ (>10 (+++))”.

Same assay, conditions: T cell-reactive region B; final concentration 0.3 μM

For B3, which “Incorporation of [3H]-thymidine into TCC DW8 (stimulation index class)” value is on record?
Its value is “+ (1-2 (+))”.

And the “Incorporation of [3H]-thymidine into TCC UZH2 (stimulation index class)” value?
Its value is “+++ (>10 (+++))”.

Which “Incorporation of [3H]-thymidine into TCC UZH2 (stimulation index class)” value does the source give for B4 here?
The value was “+++ (>10 (+++))”.

For B1, which “Incorporation of [3H]-thymidine into TCC DW8 (stimulation index class)” value is on record?
The value was “+ (1-2 (+))”.

What about the “Incorporation of [3H]-thymidine into TCC UZH2 (stimulation index class)” value of the same molecule?
The value was “+++ (>10 (+++))”.

How did the “Incorporation of [3H]-thymidine into TCC DW8 (stimulation index class)” value turn out when B2 was run?
Its value is “+ (1-2 (+))”.

What about the “Incorporation of [3H]-thymidine into TCC UZH2 (stimulation index class)” value of the same molecule?
The value was “+++ (>10 (+++))”.

Same assay, conditions: T cell-reactive region C; final concentration 0.3 μM

Which “Incorporation of [3H]-thymidine, stimulation index SI, 3rd exp.” value does the source give for B3 here?
The value was 1.1.

What about the “Incorporation of [3H]-thymidine, stimulation index class (last column, no head)” value of the same molecule?
The value was “− (<1 (−))”.

B4 was tested. Which “Incorporation of [3H]-thymidine, stimulation index SI, 1st exp.” value did it give?
The value was 7.4.

And the “Incorporation of [3H]-thymidine, stimulation index SI, 2nd exp.” value?
Its value is 5.9.

And the “Incorporation of [3H]-thymidine, stimulation index SI, 3rd exp.” value?
Its value is 4.5.

And the “Incorporation of [3H]-thymidine, stimulation index class (last column, no head)” value?
The value was “++ (5-10 (++))”.

For B1, which “Incorporation of [3H]-thymidine, stimulation index SI, 1st exp.” value is on record?
Its value is 9.8.

What about the “Incorporation of [3H]-thymidine, stimulation index SI, 2nd exp.” value of the same molecule?
Its value is 6.9.

What about the “Incorporation of [3H]-thymidine, stimulation index SI, 3rd exp.” value of the same molecule?
Its value is 4.4.

What about the “Incorporation of [3H]-thymidine, stimulation index class (last column, no head)” value of the same molecule?
Its value is “++ (5-10 (++))”.

B2 was tested. Which “Incorporation of [3H]-thymidine, stimulation index SI, 1st exp.” value did it give?
The value was 8.6.

And the “Incorporation of [3H]-thymidine, stimulation index SI, 2nd exp.” value?
The value was 6.2.

And the “Incorporation of [3H]-thymidine, stimulation index SI, 3rd exp.” value?
Its value is 4.4.

And the “Incorporation of [3H]-thymidine, stimulation index class (last column, no head)” value?
The value was “++ (5-10 (++))”.
